Assay results: PMC8106667 (Molecular cell, 2021)
Numbering of substitutions follows the chain as printed. Names may count otherwise. Blank lines part the entries; values can stand above or below the binder they belong to.

Key:
Experiment in all cases: pull-down
MBP-GFP-ORC1-HIS6 = molecular target: T1, MBP-GFP-ORC1-HIS6 (human, UniProt Q13415 1-861)
T1 sequence (looked up): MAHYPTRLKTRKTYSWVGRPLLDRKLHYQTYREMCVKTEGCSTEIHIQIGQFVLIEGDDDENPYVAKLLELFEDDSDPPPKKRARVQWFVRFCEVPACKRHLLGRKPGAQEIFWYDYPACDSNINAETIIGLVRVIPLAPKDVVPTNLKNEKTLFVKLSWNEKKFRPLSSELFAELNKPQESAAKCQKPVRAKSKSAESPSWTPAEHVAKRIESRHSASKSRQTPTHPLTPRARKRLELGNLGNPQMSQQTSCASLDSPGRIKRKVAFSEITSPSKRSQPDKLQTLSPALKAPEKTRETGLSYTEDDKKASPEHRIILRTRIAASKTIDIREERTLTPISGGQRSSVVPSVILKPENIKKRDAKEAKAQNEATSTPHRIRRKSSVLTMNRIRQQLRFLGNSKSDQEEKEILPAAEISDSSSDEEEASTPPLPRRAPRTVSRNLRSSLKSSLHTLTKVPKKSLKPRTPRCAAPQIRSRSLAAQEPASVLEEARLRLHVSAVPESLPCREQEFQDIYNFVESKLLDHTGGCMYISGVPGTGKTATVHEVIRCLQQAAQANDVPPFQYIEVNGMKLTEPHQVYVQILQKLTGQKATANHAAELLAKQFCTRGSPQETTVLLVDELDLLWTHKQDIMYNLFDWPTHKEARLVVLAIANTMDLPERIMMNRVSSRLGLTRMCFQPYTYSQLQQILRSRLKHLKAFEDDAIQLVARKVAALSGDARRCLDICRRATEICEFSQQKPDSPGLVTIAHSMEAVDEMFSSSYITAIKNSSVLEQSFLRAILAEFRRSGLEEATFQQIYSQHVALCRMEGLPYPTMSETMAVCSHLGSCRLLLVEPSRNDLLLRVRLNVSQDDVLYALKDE

[1] = molecular target: T2, GST-CDC6 wild type, full length (human, UniProt Q99741 1-560)
T2 sequence (looked up): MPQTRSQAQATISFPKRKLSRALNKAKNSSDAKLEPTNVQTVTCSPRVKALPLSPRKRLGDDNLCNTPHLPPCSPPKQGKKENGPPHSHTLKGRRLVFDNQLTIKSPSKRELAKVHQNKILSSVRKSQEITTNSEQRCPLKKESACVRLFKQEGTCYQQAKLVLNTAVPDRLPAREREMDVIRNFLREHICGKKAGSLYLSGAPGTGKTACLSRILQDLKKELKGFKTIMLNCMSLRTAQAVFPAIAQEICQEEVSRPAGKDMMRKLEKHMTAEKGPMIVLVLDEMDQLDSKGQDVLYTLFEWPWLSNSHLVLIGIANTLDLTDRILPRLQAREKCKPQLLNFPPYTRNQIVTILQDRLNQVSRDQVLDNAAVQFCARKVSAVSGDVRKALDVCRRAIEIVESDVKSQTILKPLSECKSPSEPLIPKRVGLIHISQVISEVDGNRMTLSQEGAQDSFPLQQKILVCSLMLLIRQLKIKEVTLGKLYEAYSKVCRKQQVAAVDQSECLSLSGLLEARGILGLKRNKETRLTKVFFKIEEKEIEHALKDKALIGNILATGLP

[2] = molecular target: T3, MBP-GFP-ORC1 wild type, full length (human, UniProt Q13415 1-861)
T3 sequence (looked up): T1 sequence (looked up)

binding result [1]: binds
B5: MBP-ORC1 180–240 (domain or fragment, human, UniProt Q13415 180-240, looked up)
chain: QESAAKCQKPVRAKSKSAESPSWTPAEHVAKRIESRHSASKSRQTPTHPLTPRARKRLELG

binding result [2]: binds
B6: MBP-ORC1 R720Q (natural protein, human, UniProt Q13415 1-861, looked up)
chain: T1 sequence (looked up) with R720Q

binding result [2]: binds
B7: MBP-ORC1 R105Q (natural protein, human, UniProt Q13415 1-861, looked up)
chain: T1 sequence (looked up) with R105Q

binding result [2]: binds
B8: MBP-ORC1^235ARA^237 (MBP-ORC1 A-A), full length (natural protein, human, UniProt Q13415 1-861, looked up)
chain: T1 sequence (looked up) with K235A, L237A

More lines, now with the values behind:

B1: GST-CDC6-HIS6 (natural protein, human, UniProt Q99741 1-560, looked up)
chain: T2 sequence (looked up)
binding result (MBP-GFP-ORC1-HIS6): binds

B2: MBP-CDC6-HIS6 (natural protein, human, UniProt Q99741 1-560, looked up)
chain: T2 sequence (looked up)
binding result (MBP-GFP-ORC1-HIS6): binds

B3: MBP-ORC1 100–250 wild type (domain or fragment, human, UniProt Q13415 100-250, looked up)
chain: RHLLGRKPGAQEIFWYDYPACDSNINAETIIGLVRVIPLAPKDVVPTNLKNEKTLFVKLSWNEKKFRPLSSELFAELNKPQESAAKCQKPVRAKSKSAESPSWTPAEHVAKRIESRHSASKSRQTPTHPLTPRARKRLELGNLGNPQMSQQ
binding result [1]: binds

B4: MBP-ORC1 100–250 L237A (domain or fragment, human, UniProt Q13415 100-250, looked up)
chain: B3 chain with L138A
binding result [1]: binds
